# From patent US20050118229A1, “Implantable drug delivery device for sustained release of therapeutic agent” (iMEDD, Inc., priority 2003, published 2005)
# Key:
# [1] = Hydration of lysozyme particles from cylindrical capsule-like microporous membrane packet (FIG. 2); format: physicochemical
# Protocol: FIG. 6 provides hydration results for a device utilizing the three-dimensional capsule-like embodiment of the microporous membrane (see FIG. 2). For this experiment, a section of Whatman 1PS Phase Separator membrane was formed into a cylinder and sealed lengthwise and at both ends. The resulting cylinder was 10 mm in length and 4 mm in diameter (125 mm^2 membrane area). The cylinder was filled with approximately 1.4 mg of solid lysozyme having an average particle size of 90 micrometers combined with approximately 125 μl of the water-immiscible solvent perfluorodecalin,
# The particle-filled cylinder described above was placed in a well containing 1.5 milliliters of phosphate buffered saline. A series of 70 μl samples were removed from the well at various time intervals. These samples were analyzed, and the results in FIG. 6 are the summation of mass hydrated as a function of time. Approximately 2.6 μg of lysozyme per day (i.e., 0.021 μg/mm^2) was hydrated after a nine-day delay. This observed rate is a factor of four less than the hydration rate observed in the previously discussed planar membrane experiments; however, because the entire membrane area was not active for the cylinder-shaped membrane, the release per unit area data is in reasonable agreement bwtween the two experiments. Thus, the data shown in FIGS. 4-6 provide a clear indication that the devices shown in FIGS. 1 and 2 are capable of providing the long-term zero-order release desired for an implantable drug-delivery device.
# [2] = Hydration of lysozyme particles through planar microporous membrane (dual sub-chamber device of FIG. 1); format: physicochemical
# Excerpt: The data presented in FIG. 3 is illustrative of zero-order hydration of the surrogate molecule lysozyme using the planar version of the microporous membrane shown in FIG. 1. In this experiment, three identical acrylic chambers were used, each chamber including two subchambers separated by a planar microporous membrane. The microporous membrane was a Whatman 1PS Phase Separator having a diameter of […] (area=113 mm^2).
# The lower portion of the chamber (i.e., the lower sub-chamber) was filled with 2.7 milliliters of the water-immiscible solvent, perfluorodecalin. Suspended in this solvent were 20 mg of solid lysozyme particles having an average particle size of 90 micrometers. The range of particle sizes was 75 to 105 micrometers. […] The upper portion of the chamber (i.e., the upper sub-chamber) contained 0.3 milliliters of phosphate buffered saline solution. A stirring bar was placed in the lower sub-chamber of each device to agitate the solvent at ambient temperature during the fifty-two day test period. After thirty-seven days, stirring was stopped to determine whether or not agitation had any effect on the hydration rate. The buffer solution in the upper sub-chamber of each device was removed each day and replaced with a fresh supply of solution. The lysozyme content of the upper sub-chamber samples was analyzed periodically to determine the quantity of lysozyme material that had dissolved in a one-day time period. The daily mass of lysozyme that was present in the upper sub-chamber was added to the sum of the previous days, thus the data in FIG. 3 represents the total mass of hydrated lysozyme.
# The effect of longer release periods is substantially equivalent to determining the release rate with decreasing amounts of lysozyme present in the device enclosure. To determine release variations over longer periods of time, additional planar-membrane, dual-chamber experiments were conducted using different initial amounts of lysozyme loaded, i.e., suspended, in the perfluorodecalin used to fill the lower sub-chamber. […] These average hydration rates are plotted in FIG. 5 as a function of the amount of mass loaded (100%=20 mg).
substance,measurement,setting,value
lysozyme,lysozyme hydrated per day,"[1]; approx. 1.4 mg lysozyme in approx. 125 μl perfluorodecalin, cylinder 125 mm^2 Whatman 1PS, 1.5 ml PBS",Approximately 2.6 μg per day
same,factor by which rate is less than the planar membrane hydration rate,[1]; cylinder versus planar membrane experiments,four
same,delay before hydration,[1]; cylinder-shaped membrane,nine
same,lysozyme hydrated per membrane area,"[1]; cylinder-shaped membrane, 125 mm^2 membrane area",~0.021 μg/mm^2
same,hydration rate relative to its original value,[2]; 2 mg loaded (10% of 20 mg),83%
same,hydration rate,"[2]; 2 mg suspended lysozyme, planar membrane",7.7 micrograms/day
same,hydration rate,"[2]; 5 mg suspended lysozyme, planar membrane",8.9 micrograms/day
same,lysozyme mass hydrated,"[2]; 20 mg loaded, over the fifty-two day testing period",2%
same,initial delay before hydration,"[2]; 20 mg lysozyme loaded, planar membrane",eight to fourteen
same,average hydration rate per membrane area,"[2]; 20 mg lysozyme loaded, planar membrane area 113 mm^2",0.082 ug/day/mm^2
same,average hydration rate,"[2]; 20 mg solid lysozyme particles loaded in perfluorodecalin, planar Whatman 1PS membrane, PBS, ambient temperature, 52 day test",9.3 micrograms per day
same,decrease of hydration rate,[2]; during the time the mass of lysozyme decreases by 80%,4%
